The term pEC50 denotes the negative decadic logarithm of the EC50, by convention in mol/L. A high value points to a small EC50. As a reminder, the EC50 is the midpoint of the concentration-response curve.

Values joined by “and” are separate entries in the source; they are usually repeats but may differ in a detail not shown here. Equal entries are not always repeated. Where two headings read alike, the source gives them in different places. Where no end group is shown, it is not given here.

13 molecules from US20060141460A1, “Assays for fprl-1 ligands” (AstraZeneca A B, priority 2002, published 2006) can be followed below.

Test [1] addresses T1, FPRL-1 (Homo sapiens, UniProt P25090).
T1 sequence (P25090 1-351): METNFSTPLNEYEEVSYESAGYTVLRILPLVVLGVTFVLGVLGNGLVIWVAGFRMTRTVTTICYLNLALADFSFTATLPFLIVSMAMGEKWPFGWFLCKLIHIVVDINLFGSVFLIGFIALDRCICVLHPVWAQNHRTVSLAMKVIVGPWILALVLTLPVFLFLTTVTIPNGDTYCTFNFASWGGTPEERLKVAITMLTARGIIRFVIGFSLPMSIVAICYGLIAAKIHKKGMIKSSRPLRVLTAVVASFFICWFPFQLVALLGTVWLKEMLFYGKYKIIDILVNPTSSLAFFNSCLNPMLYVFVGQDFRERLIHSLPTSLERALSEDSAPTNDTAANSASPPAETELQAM
It is filed as cell-based. The procedure:
A stable receptor pool of FPRL-1 was developed by applying an antibiotic selection (G418, 1 mg/ml) and the cells were maintained in this selection medium.
A functional assay was performed with FLIPR (Fluorescent Imaging Plate Reader, Molecular Devices, Sunnyvale, Calif.) using the fluorescent calcium indicator Fluo-3 (Molecular Probes, Inc., Eugene, Oreg.) on a 96-well platform. […] On the day of the experiment, the FPRL-1-transfected cells were loaded with fluorescent solution (Dulbecco's modified medium containing 4 μM Fluo-3 and 20% pluronic acid). The cells were incubated at 37° C. for one hour in a humidified chamber. Following the incubation step, cells were washed five times in Hanks' with 20 mM Hepes and 0.1% BSA (pH 7.4). The cells were analyzed using the FLIPR system to measure the mobilization of intracellular calcium in response to different compounds.
Cell lines transiently expressing human FPRL-1 were stimulated with compounds, and calcium responses were compared to parental cells.

The target of test [2] is T1, FPRL-1. Put plainly: Inhibition of forskolin-stimulated cAMP accumulation (adenylyl cyclase) in CHO cells expressing FPRL-1. The class given is cell-based. As to conditions: n as in cell.
For test [3], the target named is T1, FPRL-1. Put plainly: [125I]-W-peptide (WKYMVm) displacement on membranes from CHO cells stably expressing FPRL-1. It is filed as binding.
The test system of test [4] is PMNs. Put plainly: [Ca2+]i mobilization in PMNs (FLIPR). It is filed as cell-based, human. The note with it: n as in cell. The text has this:
Neutrophils play a pivotal role in the innate immune response to infection. Since these cells express FPRL-1, we evaluated the effect of CKβ8-1 (aa46-137) on PMNs calcium mobilization using the FLIPR system.

Test [5] has as its target T1, FPRL-1. It is filed as cell-based. This is another data set of the same source.
The subject of test [6] is PMNs. Put plainly: PMNs chemotaxis. It is filed as cell-based, human. The procedure:
The physiological relevance of CKβ8-1 (aa46-137) as a ligand for FPRL-1 was assessed by PMNs chemotaxis experiments.

For test [7], the target named is human formyl peptide receptor-like-1 (FPRL-1) receptor (human) (UniProt P25090). Nature of the test: cell-based or functional assay.
For test [8] the target is unchanged. Put plainly: displacement of [125I]-WKYMVm from membranes of CHO cells stably expressing FPRL-1 (n = 3).
For test [9] the target is unchanged. Put plainly: cell-based or functional assay. The source holds these as a separate data set.
Setting [10] is: CHO cells co-expressing Gα16 and FPRL-1, mean±s.e. mean.
Setting [11] is: calcium mobilization, cells co-expressing Gα16 and FPRL-1.

`CCCCC[C@H](O)/C=C/C=C\C=C\C=C\[C@@H](O)[C@@H](O)CCCC(=O)O` [Lipoxin A4 (LXA4), Lipoxin A4]: in test [1] (setting [10]), the “Intracellular Ca2+ mobilization pEC50 (n = 3)” value is listed as below 6.0. Also, the “Adenylyl cylase pIC50” value in test [2] was <5.7 (n = 2). Besides, in test [3], the “[125I]-W-peptide (WKYMVm) Displacement pIC50 (n = 3)” value (“[125I]-W-peptide” below) is “inactive”. Also, the pEC50 result in test [4] was “inactive (n = 4)”.

With `CSCC[C@H](NC(=O)[C@@H](NC(=O)[C@H](CCSC)NC(=O)[C@H](Cc1ccc(O)cc1)NC(=O)[C@H](CCCCN)NC(=O)[C@@H](N)Cc1c[nH]c2ccccc12)C(C)C)C(N)=O` [W-peptide], the calcium response entry in [5] (CHO cells transiently expressing FPRL-1, absence of Gα16) is recorded as “consistent calcium response”. For the same molecule, the “effect of pertussis toxin (PTX) pre-treatment on ligand-induced Ca2+ response” value in test [5] (CHO-K1 transiently expressing FPRL-1, PTX pre-treatment) was “completely abolished”. Moreover, in test [6], the “concentration at which the maximum percentage of cell migration was reached” value is given as 100 nM.

In the case of “CKβ8 (aa22-120) (from UniProt P55773 22-120) (ligand)”, the Intracellular Ca2+ mobilization pEC50 (n = 3), CHO cells (-log of the EC50) in [7] is below 5.

“CKβ8 (aa46-120) (from UniProt P55773 46-120) (ligand)” showed an Intracellular Ca2+ mobilization pEC50 (n = 3), CHO cells (-log of the EC50) in test [7] below 5.

Consider “CKβ8-1 (aa22-137) (from UniProt P55773 22-137) (ligand)”, for which, in test [7], the Intracellular Ca2+ mobilization pEC50 (n = 3), CHO cells (-log of the EC50) is below 5.7 and the fold lower potency at FPRL-1 than at CCR1, calcium mobilization is 200 to 300 fold.

For “Human Prion protein (hPrP) (from UniProt P04156 106-126)”, the Intracellular Ca2+ mobilization pEC50 (n = 3), CHO cells (-log of the EC50) in test [7] is below 6.

Turning to “IL-8: known to activate CXCR1 and CXCR2 receptors”, the pEC50 in [4] is on record as 8.76 ± 0.24 (n = 3).

In test [1] (Intracellular Ca2+ mobilization pEC50 (n = 3), CHO cells co-expressing Gα16 and FPRL-1, mean±s.e. mean), LWRRKIGPQMTLSHAAG [SHAAG peptide] showed an EC50 of 182 nM. Besides, in test [1] (setting [11]), the “times less potent at FPRL-1 as compared to CKβ8-1 (aa46-137)” value was in the range of 60 to 200 times and the “times more potent than the long form CKβ8-1(aa22-137)” value was around 120 times.

MIP-1α: ligand tested in PMNs: the pEC50 entry in test [4] was “inactive (n = 4)”.

In test [7], MMK-1 (peptide) returned a concentration giving the maximum percentage of cell migration, PMN chemotaxis of 12 µM and a pEC50, [Ca2+]i mobilization in PMNs (-log of the EC50) of 7.17.

Consider SHAAG peptide, for which, in test [7], the Intracellular Ca2+ mobilization pEC50 (n = 3), CHO cells (-log of the EC50) was determined as 6.74; the fold higher potency than CKβ8-1 (aa22-137), calcium mobilization amounted to 120 fold; the fold lower potency than CKβ8-1 (aa46-137), calcium mobilization was in the range of 60 to 200 fold.

Take “recombinant human CKβ8-1 (aa46-137) (from UniProt P55773 46-137) (ligand)”: in test [7], the Adenylyl cylase pIC50 (inhibition of forskolin-stimulated cAMP accumulation), CHO cells (-log of the IC50) stood at 9.02; the EC50, intracellular calcium mobilization (FLIPR), CHO cells transiently expressing hFPRL-1 in Gα16 background, n = 1 worked out at 0.69 nM; the EC50, intracellular calcium mobilization (FLIPR), CHO cells transiently expressing hFPRL-1 in Gα16 background, n = 2 is 0.14 nM; the EC50, intracellular calcium mobilization (FLIPR), CHO cells transiently expressing hFPRL-1 in Gαqi5 background, n = 1 is 2.9 nM. Further, in test [7], the EC50, intracellular calcium mobilization (FLIPR), CHO cells transiently expressing hFPRL-1 in Gαqi5 background, n = 2 was 2.5 nM; the Emax, intracellular calcium mobilization (FLIPR), CHO cells transiently expressing hFPRL-1 in Gα16 background, n = 1 turned out to be 4120 RFU; the Emax, intracellular calcium mobilization (FLIPR), CHO cells transiently expressing hFPRL-1 in Gα16 background, n = 2 worked out at 6330 RFU; the Emax, intracellular calcium mobilization (FLIPR), CHO cells transiently expressing hFPRL-1 in Gαqi5 background, n = 1 was found to be 4600 RFU. In addition, in test [7], the Emax, intracellular calcium mobilization (FLIPR), CHO cells transiently expressing hFPRL-1 in Gαqi5 background, n = 2 worked out at 5950 RFU; the Intracellular Ca2+ mobilization pEC50 (n = 3), CHO cells (-log of the EC50) worked out at 9.13; the concentration giving the maximum percentage of cell migration, PMN chemotaxis came out at 1 µM; the pEC50, [Ca2+]i mobilization in PMNs (-log of the EC50) was determined as 7.42. Moreover, the pIC50 (-log of the IC50) in test [8] stood at 7.97.

B1: Serum Amyloid A protein (SAA) (ligand, UniProt P0DJI8 19-122, looked up, species assumed)
Serum amyloid A-1 protein: RSFFSFLGEAFDGARDMWRAYSDMREANYIGSDKYFHARGNYDAAKRGPGGAWAAEVITDARENIQRFFGHGAEDSLADQAANEWGRSGKDPNHFRPAGLPEKY
For the molecule B1, in test [9], the Adenylyl cylase pIC50 (inhibition of forskolin-stimulated cAMP accumulation), CHO cells (-log of the IC50) is 6.38 and 6.48; the Intracellular Ca2+ mobilization pEC50 (n = 3), CHO cells (-log of the EC50) came to 6.88; the pEC50, [Ca2+]i mobilization in PMNs (-log of the EC50) is below 5.7. In addition, the “Intracellular Ca2+ mobilization pEC50 (n = 3)” value in test [1] (setting [10]) is listed as 6.88 ± 0.07. Also, the “Adenylyl cylase pIC50” value in test [2] is 6.38 and 6.48. Besides, in test [3], the “[125I]-W-peptide” value is recorded as below 5.52. Also, the “[125I]-W-peptide” value in test [3] (listed as SAA) is reported as below 5.52. Also, the pEC50 in test [4] is <5.7 (n = 3).
